From publication PMC12649893 (Biosensors, 2025) come the findings set out here.

Holding throughout (conditions): both partners purified
Test [1] addresses T1, Blood dendritic cell antigen 2 of macaca fascicularis (cBDCA-2) extracellular fragment (Macaca fascicularis, UniProt A0A2K5UWP4).
T1 construct: Blood dendritic cell antigen 2 (BDCA-2) of Macaca fascicularis, extracellular fragment, residues 45-213 of XP_005570080.1; source: CHO, transient transfection, purified (Ni-NTA, SEC Superdex 75)
The experiment in a line: BLI; biotinylated FcγRIIIa on SA sensors (5 μg/mL, to 1 nm), antibodies for 300 s, then antigens 10 μg/mL for 300 s; kinetic buffer pH 7.4, 30 °C; constants from the empirical model Equation (A1), k_diss fixed.

Test [2] has as its target T1, Blood dendritic cell antigen 2 of …. Nature of the test: BLI; biotinylated FcγRIa on SA sensors (5 μg/mL, to 1 nm), antibodies for 300 s, then antigens 10 μg/mL for 600 s; kinetic buffer pH 7.4, 30 °C; constants from the empirical model Equation (A1), k_diss fixed.
The target is the same in test [3]. The experiment in a line: BLI; biotinylated FcRn on SA sensors (5 μg/mL, to 1 nm), antibodies 10 μg/mL for 180 s, then antigens 20 μg/mL for 300 s; kinetic buffer pH 6.0, 30 °C; constants from the empirical model Equation (A1), k_diss fixed.
Test [4] has the same target. Nature of the test: BLI; standard measurement of kinetics with the immobilization of antibodies on AR2G sensors (Sartorius).
For test [5], the target named is T2, Nectin-like protein 5 (NECL-5 or CD155) extracellular fragment (UniProt P15151).
T2 construct: Nectin-like protein 5 (NECL-5, CD155, poliovirus receptor), extracellular fragment, residues 28-343 of NP_001129242.2; also called poliovirus receptor; source: CHO, transient transfection, purified (Ni-NTA, SEC Superdex 75)
T2 sequence (P15151 28-343): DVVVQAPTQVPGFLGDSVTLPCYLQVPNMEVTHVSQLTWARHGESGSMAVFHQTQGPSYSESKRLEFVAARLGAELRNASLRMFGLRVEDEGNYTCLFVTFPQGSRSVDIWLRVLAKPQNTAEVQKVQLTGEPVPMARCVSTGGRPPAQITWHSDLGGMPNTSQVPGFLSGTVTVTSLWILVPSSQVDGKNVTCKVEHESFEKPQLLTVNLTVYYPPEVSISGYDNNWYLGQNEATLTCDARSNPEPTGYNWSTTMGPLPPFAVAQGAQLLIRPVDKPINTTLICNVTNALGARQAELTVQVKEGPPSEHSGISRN
Nature of the test: BLI; ProA sensors; antibodies loaded at 10 micrograms/mL for 300 s, antigens 10 μg/mL, association 7200 s; 30 °C, PBS, 0.1% Tween 20, 0.1% BSA, pH 7.4; constants from the empirical model Equation (A1), k_diss fixed.

Test [6] deals with T3, Triggering receptor expressed on myeloid cells 2 (TREM-2) extracellular fragment (UniProt Q9NZC2-1).
T3 construct: Triggering receptor expressed on myeloid cells 2 (TREM-2), extracellular fragment, residues 19-174 of NP_061838.1; source: CHO, transient transfection, purified (Ni-NTA, SEC Superdex 75)
T3 sequence (Q9NZC2 19-174): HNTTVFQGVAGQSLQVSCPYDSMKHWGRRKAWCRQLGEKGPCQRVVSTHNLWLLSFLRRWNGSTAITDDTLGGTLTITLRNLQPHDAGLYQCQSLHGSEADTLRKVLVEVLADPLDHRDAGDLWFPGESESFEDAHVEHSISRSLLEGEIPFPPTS
The description is as above.

Test [7] addresses T1, Blood dendritic cell antigen 2 of …. Described as above.
The target in test [8] is T2, Nectin-like protein 5 (NECL-5 or CD155) …. The experiment in a line: BLI; biotinylated FcγRIIIa on SA sensors (5 μg/mL, to 1 nm), antibodies for 300 s, then antigens 10 μg/mL for 300 s; kinetic buffer pH 7.4, 30 °C; constants from the empirical model Equation (A1), k_diss fixed.
The target is the same in test [9]. The experiment in a line: BLI; biotinylated FcγRIa on SA sensors (5 μg/mL, to 1 nm), antibodies for 300 s, then antigens 10 μg/mL for 600 s; kinetic buffer pH 7.4, 30 °C; constants from the empirical model Equation (A1), k_diss fixed.
For test [10] the target is unchanged. The experiment in a line: BLI; biotinylated FcRn on SA sensors (5 μg/mL, to 1 nm), antibodies 10 μg/mL for 180 s, then antigens 20 μg/mL for 300 s; kinetic buffer pH 6.0, 30 °C; constants from the empirical model Equation (A1), k_diss fixed.
For test [11] the target is unchanged. The experiment in a line: BLI; standard measurement of kinetics with the immobilization of antibodies on AR2G sensors (Sartorius).
For test [12], the target named is T1, Blood dendritic cell antigen 2 of …. The experiment in a line: BLI; ProA sensors; antibodies loaded at 10 micrograms/mL for 300 s, antigens 10 μg/mL, association 7200 s; 30 °C, PBS, 0.1% Tween 20, 0.1% BSA, pH 7.4; constants from the empirical model Equation (A1), k_diss fixed. This is another data set of the same source.
The target of test [13] is T2, Nectin-like protein 5 (NECL-5 or CD155) …. The description is as above. This is another data set of the same source.

B1: AB1 antibody specific to BDCA-2 (BIIB059) (antibody, V domains shown)
VH: DVQLVESGGGLVKPGGSLRLSCAASGFTFSTYTMSWVRQAPGKGLEWVATISPGDSFGYYYPDSVQGRFTISRDNAKNSLYLQMNSLRAEDTAVYYCTRDIYYNYGAWFAYWGQGTLVTVSS
VL: DIQLTQSPSSLSASVGDRVTITCKASQSVDYDGDSYMNWYQQKPGKAPKLLIYAASTLESGVPSRFSGSGSGTDFTLTISSLQPEDFATYYCQQANEDPRTFGQGTKVEIK
With B1, the kon in [1] came out at 470000 M⁻¹ s⁻¹; in [2], 265000 M⁻¹ s⁻¹; in [3], 180000 M⁻¹ s⁻¹; in test [4] it was 134000 M⁻¹ s⁻¹; in test [7] it was 12000 M⁻¹ s⁻¹. Besides, the koff in [4] came out at 3.72e-05 s⁻¹. Moreover, the binding result in test [5] and in [6] was “no binding (tested: 10 μg/mL)” throughout.

B2: AB2 antibody specific to NECL-5 (NTX1088) (antibody, V domains shown)
VH: QVQLVQSGAEVKKPGASVKVSCKATGYTFSNYWIEWVRQAPGQGLEWIGEIFPGSGRINFNEKFKGRVTFTADTSISTTYMELSRLRSDDTAVYYCARTKIYGNSFDYWGQGTLVTVSS
VL: DIQMTQSPSSLSASVGDRVTITCKASQDVGTAVVWYQQKPGKAPKLLIYWASSRHEGVPDRFSGSGSGTDFTLTISSLQPEDFADYFCQQYSRYPLTFGQGTKLEIK
As for B2, the kon in test [8] is 39500 M⁻¹ s⁻¹; in test [9], 99000 M⁻¹ s⁻¹; in test [10], 20000 M⁻¹ s⁻¹; in test [11], 179000 M⁻¹ s⁻¹; in test [13], 52000 M⁻¹ s⁻¹. The same molecule came in with a koff in test [11] of 0.00105 s⁻¹. Besides, the binding result in test [6] and in [12] was “no binding (tested: 10 μg/mL)” in each case.
